Assay results taken from patent US20200079833A1 (AstraZeneca / MedImmune, published 2020).
Starred links: 1 amine or outer side, 2 acyl side, 3 side chain; linkers in the order of their positions; H or OH if unused. Non-standard residues stand in square brackets, D forms with d. Groups on a side chain read outwards from the residue. No end group written: not given here. *: point of attachment. γGlu = O=C(O)[C@H](CCC(=O)[*:2])N[*:1]; Palmitoyl = CCCCCCCCCCCCCCCC(=O)*; αMeF = C[C@](N)(Cc1ccccc1)C(=O)O; αMeK = C[C@](N)(CCCCN)C(=O)O; αMeS = C[C@](N)(CO)C(=O)O; Aib = CC(C)(N)C(=O)O

T1: glucose-dependent insulinotropic peptide (gastric inhibitory polypeptide) receptor (GIPR) (human, UniProt P48546 22-466)
T1 sequence (looked up): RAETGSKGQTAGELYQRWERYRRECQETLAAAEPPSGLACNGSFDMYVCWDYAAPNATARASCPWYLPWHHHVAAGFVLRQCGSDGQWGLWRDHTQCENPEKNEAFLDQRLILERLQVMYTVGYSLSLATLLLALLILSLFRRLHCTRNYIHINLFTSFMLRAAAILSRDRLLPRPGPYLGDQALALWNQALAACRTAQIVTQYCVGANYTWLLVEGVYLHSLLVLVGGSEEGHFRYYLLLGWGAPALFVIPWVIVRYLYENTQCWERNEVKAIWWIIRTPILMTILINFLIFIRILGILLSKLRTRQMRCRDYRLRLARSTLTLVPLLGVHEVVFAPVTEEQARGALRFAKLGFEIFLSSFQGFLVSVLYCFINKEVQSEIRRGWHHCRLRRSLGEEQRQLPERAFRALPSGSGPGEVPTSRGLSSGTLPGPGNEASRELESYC

B1: SEQ ID NO 94 (peptide)
peptide: H[Aib]EGSK([γGlu-Palmitoyl])TSDV[αMeS]S[αMeF]LEGEAA[αMeK]E[αMeF]IA[αMeF]VV[αMeK]GG-NH2
modifications: N-terminus assumed
SMILES: CCCCCCCCCCCCCCCC(=O)N[C@@H](CCC(=O)NCCCC[C@H](NC(=O)[C@H](CO)NC(=O)CNC(=O)[C@H](CCC(=O)O)NC(=O)C(C)(C)NC(=O)[C@@H](N)Cc1c[nH]cn1)C(=O)N[C@H](C(=O)N[C@@H](CO)C(=O)N[C@@H](CC(=O)O)C(=O)N[C@H](C(=O)N[C@@](C)(CO)C(=O)N[C@@H](CO)C(=O)N[C@@](C)(Cc1ccccc1)C(=O)N[C@@H](CC(C)C)C(=O)N[C@@H](CCC(=O)O)C(=O)NCC(=O)N[C@@H](CCC(=O)O)C(=O)N[C@@H](C)C(=O)N[C@@H](C)C(=O)N[C@@](C)(CCCCN)C(=O)N[C@@H](CCC(=O)O)C(=O)N[C@@](C)(Cc1ccccc1)C(=O)N[C@H](C(=O)N[C@@H](C)C(=O)N[C@@](C)(Cc1ccccc1)C(=O)N[C@H](C(=O)N[C@H](C(=O)N[C@@](C)(CCCCN)C(=O)NCC(=O)NCC(N)=O)C(C)C)C(C)C)[C@@H](C)CC)C(C)C)[C@@H](C)O)C(=O)O
B2: SEQ ID NO 92 (peptide)
peptide: H[Aib]EGS[αMeF]TK([γGlu-Palmitoyl])DV[αMeS]S[αMeF]LEGEAA[αMeK]E[αMeF]IA[αMeF]VV[αMeK]GG-NH2
modifications: N-terminus assumed
SMILES: CCCCCCCCCCCCCCCC(=O)N[C@@H](CCC(=O)NCCCC[C@H](NC(=O)[C@@H](NC(=O)[C@](C)(Cc1ccccc1)NC(=O)[C@H](CO)NC(=O)CNC(=O)[C@H](CCC(=O)O)NC(=O)C(C)(C)NC(=O)[C@@H](N)Cc1c[nH]cn1)[C@@H](C)O)C(=O)N[C@@H](CC(=O)O)C(=O)N[C@H](C(=O)N[C@@](C)(CO)C(=O)N[C@@H](CO)C(=O)N[C@@](C)(Cc1ccccc1)C(=O)N[C@@H](CC(C)C)C(=O)N[C@@H](CCC(=O)O)C(=O)NCC(=O)N[C@@H](CCC(=O)O)C(=O)N[C@@H](C)C(=O)N[C@@H](C)C(=O)N[C@@](C)(CCCCN)C(=O)N[C@@H](CCC(=O)O)C(=O)N[C@@](C)(Cc1ccccc1)C(=O)N[C@H](C(=O)N[C@@H](C)C(=O)N[C@@](C)(Cc1ccccc1)C(=O)N[C@H](C(=O)N[C@H](C(=O)N[C@@](C)(CCCCN)C(=O)NCC(=O)NCC(N)=O)C(C)C)C(C)C)[C@@H](C)CC)C(C)C)C(=O)O
B3: SEQ ID NO 91 (peptide)
peptide: H[Aib]EGS[αMeF]TSK([γGlu-Palmitoyl])V[αMeS]S[αMeF]LEGEAA[αMeK]E[αMeF]IA[αMeF]VV[αMeK]GG-NH2
modifications: N-terminus assumed
SMILES: CCCCCCCCCCCCCCCC(=O)N[C@@H](CCC(=O)NCCCC[C@H](NC(=O)[C@H](CO)NC(=O)[C@@H](NC(=O)[C@](C)(Cc1ccccc1)NC(=O)[C@H](CO)NC(=O)CNC(=O)[C@H](CCC(=O)O)NC(=O)C(C)(C)NC(=O)[C@@H](N)Cc1c[nH]cn1)[C@@H](C)O)C(=O)N[C@H](C(=O)N[C@@](C)(CO)C(=O)N[C@@H](CO)C(=O)N[C@@](C)(Cc1ccccc1)C(=O)N[C@@H](CC(C)C)C(=O)N[C@@H](CCC(=O)O)C(=O)NCC(=O)N[C@@H](CCC(=O)O)C(=O)N[C@@H](C)C(=O)N[C@@H](C)C(=O)N[C@@](C)(CCCCN)C(=O)N[C@@H](CCC(=O)O)C(=O)N[C@@](C)(Cc1ccccc1)C(=O)N[C@H](C(=O)N[C@@H](C)C(=O)N[C@@](C)(Cc1ccccc1)C(=O)N[C@H](C(=O)N[C@H](C(=O)N[C@@](C)(CCCCN)C(=O)NCC(=O)NCC(N)=O)C(C)C)C(C)C)[C@@H](C)CC)C(C)C)C(=O)O
B4: SEQ ID NO 93 (peptide)
peptide: H[Aib]EGS[αMeF]K([γGlu-Palmitoyl])SDV[αMeS]S[αMeF]LEGEAA[αMeK]E[αMeF]IA[αMeF]VV[αMeK]GG-NH2
modifications: N-terminus assumed
SMILES: CCCCCCCCCCCCCCCC(=O)N[C@@H](CCC(=O)NCCCC[C@H](NC(=O)[C@](C)(Cc1ccccc1)NC(=O)[C@H](CO)NC(=O)CNC(=O)[C@H](CCC(=O)O)NC(=O)C(C)(C)NC(=O)[C@@H](N)Cc1c[nH]cn1)C(=O)N[C@@H](CO)C(=O)N[C@@H](CC(=O)O)C(=O)N[C@H](C(=O)N[C@@](C)(CO)C(=O)N[C@@H](CO)C(=O)N[C@@](C)(Cc1ccccc1)C(=O)N[C@@H](CC(C)C)C(=O)N[C@@H](CCC(=O)O)C(=O)NCC(=O)N[C@@H](CCC(=O)O)C(=O)N[C@@H](C)C(=O)N[C@@H](C)C(=O)N[C@@](C)(CCCCN)C(=O)N[C@@H](CCC(=O)O)C(=O)N[C@@](C)(Cc1ccccc1)C(=O)N[C@H](C(=O)N[C@@H](C)C(=O)N[C@@](C)(Cc1ccccc1)C(=O)N[C@H](C(=O)N[C@H](C(=O)N[C@@](C)(CCCCN)C(=O)NCC(=O)NCC(N)=O)C(C)C)C(C)C)[C@@H](C)CC)C(C)C)C(=O)O
B5: SEQ ID NO 90 (peptide)
peptide: H[Aib]EGS[αMeF]TSDK([γGlu-Palmitoyl])[αMeS]S[αMeF]LEGEAA[αMeK]E[αMeF]IA[αMeF]VV[αMeK]GG-NH2
modifications: N-terminus assumed
SMILES: CCCCCCCCCCCCCCCC(=O)N[C@@H](CCC(=O)NCCCC[C@H](NC(=O)[C@H](CC(=O)O)NC(=O)[C@H](CO)NC(=O)[C@@H](NC(=O)[C@](C)(Cc1ccccc1)NC(=O)[C@H](CO)NC(=O)CNC(=O)[C@H](CCC(=O)O)NC(=O)C(C)(C)NC(=O)[C@@H](N)Cc1c[nH]cn1)[C@@H](C)O)C(=O)N[C@@](C)(CO)C(=O)N[C@@H](CO)C(=O)N[C@@](C)(Cc1ccccc1)C(=O)N[C@@H](CC(C)C)C(=O)N[C@@H](CCC(=O)O)C(=O)NCC(=O)N[C@@H](CCC(=O)O)C(=O)N[C@@H](C)C(=O)N[C@@H](C)C(=O)N[C@@](C)(CCCCN)C(=O)N[C@@H](CCC(=O)O)C(=O)N[C@@](C)(Cc1ccccc1)C(=O)N[C@H](C(=O)N[C@@H](C)C(=O)N[C@@](C)(Cc1ccccc1)C(=O)N[C@H](C(=O)N[C@H](C(=O)N[C@@](C)(CCCCN)C(=O)NCC(=O)NCC(N)=O)C(C)C)C(C)C)[C@@H](C)CC)C(=O)O

Each binder was assayed against GLP-1 receptor (GLP-1R) (human, UniProt P43220 24-463) (assay: cell-based or functional assay).

| cAMP Mean pM GLP-1R | cAMP Primary assay EC50 GLP-1R n1 | cAMP Primary assay EC50 GLP-1R n2 | Binder |
| --- | --- | --- | --- |
| 228 pM | 0.14 nM | 0.32 nM | B1 |
| 423 pM | 0.45 nM | 0.39 nM | B2 |
| 24 pM | 0.021 nM | 0.027 nM | B3 |
| 27600 pM | 28 nM | 28 nM | B4 |
| 0.7 pM | 0.00068 nM | 0.00079 nM | B5 |

What follows are binders tested against glucagon receptor (GCGR) (human, UniProt P47871 26-477) (assay: cell-based or functional assay).
glucagon receptor (GCGR), sequence (P47871 26-477): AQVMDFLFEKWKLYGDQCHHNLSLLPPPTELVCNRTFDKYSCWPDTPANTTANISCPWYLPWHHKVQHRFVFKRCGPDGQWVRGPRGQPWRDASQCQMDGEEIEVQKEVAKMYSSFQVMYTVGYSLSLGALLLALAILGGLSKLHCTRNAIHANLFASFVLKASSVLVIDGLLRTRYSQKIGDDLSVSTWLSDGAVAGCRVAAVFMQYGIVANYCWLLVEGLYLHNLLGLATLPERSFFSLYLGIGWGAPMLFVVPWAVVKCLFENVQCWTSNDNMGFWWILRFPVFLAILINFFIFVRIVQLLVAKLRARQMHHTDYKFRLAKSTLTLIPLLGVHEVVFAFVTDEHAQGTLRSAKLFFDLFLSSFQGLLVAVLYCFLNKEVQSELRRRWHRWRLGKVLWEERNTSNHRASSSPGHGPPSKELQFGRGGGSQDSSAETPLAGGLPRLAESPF

| cAMP Primary assay EC50 Gluc-R | cAMP Primary assay EC50 Gluc-R (2nd) | Binder |
| --- | --- | --- |
| 28 nM | 28 nM | B1 |
| 28 nM | 28 nM | B2 |
| 28 nM | 28 nM | B3 |
| 28 nM | 28 nM | B4 |
| 28 nM | 28 nM | B5 |

The binders below were run against T1, glucose-dependent insulinotropic … (assay: cell-based or functional assay).

| cAMP Primary assay EC50 GIP-R | cAMP Primary assay EC50 GIP-R (2nd) | Binder |
| --- | --- | --- |
| 28 nM | 28 nM | B1 |
| 28 nM | 28 nM | B2 |
| 28 nM | 28 nM | B3 |
| 28 nM | 28 nM | B4 |
| 28 nM | 28 nM | B5 |
